Assay [1] concerns the target SARS-CoV-2 receptor binding domain (RBD), recombinant, biotinylated (SARS-CoV-2).
Assay [2] deals with SARS-CoV-2 spike protein on stably transduced 293T cells (SARS-CoV-2). The experiment in a line: FACS binding curve, percent of cells labeled. In general terms: A flow cytometer gives signals particle by particle.
Assay [3] concerns the target WT Spike (SARS-CoV2).
The target in assay [4] is WT Spike (SARS-CoV-2 spike protein) (SARS-CoV-2).

Here are results for 7 molecules from patent US20240409617A1.

Changes are numbered by the printed parent chain. Bounds are passed on as bounds.

B1: Ab2-7 IgG (antibody, V domains shown)
VH: QVTLKESGPTRVKPTQTLTLTCTFSGFSLSTTGVGVGWIRQPPGKALEWLALIYWNDDKRYSPSLKSRLTITKDTSKNQVVLTMTNMDPVDTATYYCARISGSGYFYPFDIWGQGTTVTVSS
VL: NFMLTQPHSVSESPGKTVTISCTRSSGSIASNYVQWYQQRPGSSPTTVIYEDNQRPSGVPDRFSGSIDSSSNSASLTISGLKAEDEADYYCQSYDSSSLWVFGGGTKLTVL
As a reminder, the Kd is the concentration at which binding is half-saturated. In general, koff refers to a measure of how fast the partners let go of each other. For orientation: kon means a measure of how fast the partners come together. As for B1, in assay [1], the Kd is 268 pM, the koff is 3.93e-05 s⁻¹ and the kon came out at 147000 M⁻¹ s⁻¹. For the same molecule, the fold shift of the FACS binding curve to the right, IgG against scFv-Fc in assay [2] turned out to be 10 fold.

B2: Ab_28 scFv-Fc (scFv, V domains shown)
VH: QVTLKESGPGLVNPSETLSLTCTVSGASISNSFWSWIRQSPGKGLEWIGYTSYSGNSIYNPSLKSRLTMSIDTSKNQLSLNLRSLTAADTAVYYCARREWIKGHFDYWGQGTLVTVSS
VL: B1 VL with R24G, S26G, S44A, A83T, S98N, L99P, W100V
As to B2, in assay [3], the Kd stood at 8.9 pM and the Response worked out at 0.132.

B3: S1-RBD-R3-T1-C7 Ab (Ab_29) scFv-Fc (scFv, V domains shown)
VH: QVQLQQSGPGLVKPSQTLSLTCAISGDSVSSYSDAWNWIRQSPSRGLEWLGRTYYRSKWYNDYAVSVKSRITINPDTSKNQFSLQLSSVTPEDTAVYYCAREIVATTPFRNYYYGMDVWGQGTTVTVSS
VL: B1 VL with K16N, S25T, Y50F, E51Q, N53K, Q54L, A83T
In assay [3], B3 registered a Kd of 149 pM and a Response of 0.126.

B4: S1-RBD-R3-T1-B12 Ab (Ab_31) scFv-Fc (scFv, V domains shown)
VH: QVQLVQSGAEVKKPGSSVKVSCKASGGTFSSYTISWVRQAPGQGLEWMGGIIPILGTPNYAQKFQDRVAITADKSTSTAYMELSSLRSEDTAVYYCAVGSGWYSGFDYWGQGTLVTVSS
VL: NFMLTQPHSVSESPGKTVTISCTGSSGSIASNYVQWYQQRPGSAPTTVIYEDSQRPSGVPDRFSGSIDSSSNSASLTISGLKTEDEADYYCQSFHNSNPVIFGGGTKLTVL
In the case of B4, in assay [3], the Kd is less than 1 pM and the Response turned out to be 0.101.

B5: RBD-R3-E1-B3 Ab (Ab_32) scFv-Fc (scFv, V domains shown)
VH: QVQLVQSGAEVKKPGESLKISCKGSGYSFTSYWIGWVRQMPGKGLEWMGIIYPGDSDTRYSPSFQGQVTISADKSISTAYLQWSSLKASDTAMYYCARGWQWHDYWGQGTLVTVSS
VL: QTVVTQEPAVSVALGQTVRITCQGDSLRSYYASWYQQKPGQAPVLVVYDKDKRPSGIPDRFSGSTSGNTASLTITGAQAEDEADYYCNSRDRSDNHVVFGGGTKLTVL
On to B5, for which, in assay [3], the Kd is 6.32 pM and the Response amounted to 0.131.

B6: RBD-R3-E1-A5 Ab (Ab_30) scFv-Fc (scFv, V domains shown)
VH: QVQLVQSGGGVVQPGKSLRLSCTASGFTFSDFPIHWVRQAPGKGLEWVGVISYDGNIKYYGDSVKGRFTISRDNAKNSLYLQMNSLRVEDTAVYYCARGGSSFDIWGQGTTVTVSS
VL: SYELTQPPSVSEAPRQRVTISCSGSTSNIGNNAVSWYQHLPGKAPKLLIYYNERLPSGVSDRFSGSKSGTSASLAISGLRSEDEADYYCAAWDDSLSGHVVFGGGTKLTVL
In assay [3], B6 returned an equilibrium dissociation constant (Kd) of 1.02 pM and a Response of 0.107.

B7: Ab 38 scFv-Fc (scFv, V domains shown)
VH: QVTLKESGPTLVKPTQTLTLTCTFSGFSLTTSGVSVGWIRQPPGKALEWLALIHWDDDKRYSPSLRSRLTITRDTSKNQVVLTVTDMDPADTGTYYCASFIMTVYAEYFEDWGQGTLVTVSS
VL: EIVLTQSPATLSVSPGERATLSCRASQSVSSNLAWYQQKPGQAPRLLMYDVSTRATGIPARFSGSGSGTEFSLTISSLQSEDFAVYYCQQRGAWPLTFGGGTKVEIK
In assay [4], B7 gave a Kd of 7.86 pM and a Response of 0.274.
